Laboratory results: paper PMC7525811 (Molecular Biology of the Cell, 2020)
Like-named read-outs stand apart in the source and are kept apart here. No end group written: not given here. MBP = not defined here

Columns and labels:
HEK 293 cells = test: Immunostaining and confocal microscopy of endogenous RPS2 with and without LMB; assay type: cell-based, human; conditions: anti-RPS2 immunostaining, presence vs absence of LMB
CRM1(E571K) = CRM1(E571K) (Homo sapiens, UniProt O14980, E571K); assay type: binding; conditions: for Kd,E571K/Kd,WT: ratio of Kds from differential photobleaching assays
[1] = molecular target: full-length human CRM1 (WT) (Homo sapiens, UniProt O14980); assay type: binding; conditions: from photobleaching Kds
[2] = molecular target: full-length human CRM1(E571K) (human) (UniProt O14980); test: fluorescence polarisation
[3] = molecular target: full-length human CRM1(E571K) (human) (UniProt O14980); test: differential photobleaching
[4] = molecular target: T1, full-length human CRM1(E571K) (human, UniProt O14980 1-1071, E571K); test: differential photobleaching
[5] = molecular target: T2, full-length human CRM1 (wild type) (human, UniProt O14980 1-1071); test: differential photobleaching
[6] = molecular target: T2, full-length human CRM1 (wild type); test: differential photobleaching; remark: listed apart in the source
[7] = molecular target: T1, full-length human CRM1(E571K)
[8] = molecular target: T2, full-length human CRM1 (wild type)

Sequence of CRM1(E571K) (O14980 whole entry E571K, other chains not shown): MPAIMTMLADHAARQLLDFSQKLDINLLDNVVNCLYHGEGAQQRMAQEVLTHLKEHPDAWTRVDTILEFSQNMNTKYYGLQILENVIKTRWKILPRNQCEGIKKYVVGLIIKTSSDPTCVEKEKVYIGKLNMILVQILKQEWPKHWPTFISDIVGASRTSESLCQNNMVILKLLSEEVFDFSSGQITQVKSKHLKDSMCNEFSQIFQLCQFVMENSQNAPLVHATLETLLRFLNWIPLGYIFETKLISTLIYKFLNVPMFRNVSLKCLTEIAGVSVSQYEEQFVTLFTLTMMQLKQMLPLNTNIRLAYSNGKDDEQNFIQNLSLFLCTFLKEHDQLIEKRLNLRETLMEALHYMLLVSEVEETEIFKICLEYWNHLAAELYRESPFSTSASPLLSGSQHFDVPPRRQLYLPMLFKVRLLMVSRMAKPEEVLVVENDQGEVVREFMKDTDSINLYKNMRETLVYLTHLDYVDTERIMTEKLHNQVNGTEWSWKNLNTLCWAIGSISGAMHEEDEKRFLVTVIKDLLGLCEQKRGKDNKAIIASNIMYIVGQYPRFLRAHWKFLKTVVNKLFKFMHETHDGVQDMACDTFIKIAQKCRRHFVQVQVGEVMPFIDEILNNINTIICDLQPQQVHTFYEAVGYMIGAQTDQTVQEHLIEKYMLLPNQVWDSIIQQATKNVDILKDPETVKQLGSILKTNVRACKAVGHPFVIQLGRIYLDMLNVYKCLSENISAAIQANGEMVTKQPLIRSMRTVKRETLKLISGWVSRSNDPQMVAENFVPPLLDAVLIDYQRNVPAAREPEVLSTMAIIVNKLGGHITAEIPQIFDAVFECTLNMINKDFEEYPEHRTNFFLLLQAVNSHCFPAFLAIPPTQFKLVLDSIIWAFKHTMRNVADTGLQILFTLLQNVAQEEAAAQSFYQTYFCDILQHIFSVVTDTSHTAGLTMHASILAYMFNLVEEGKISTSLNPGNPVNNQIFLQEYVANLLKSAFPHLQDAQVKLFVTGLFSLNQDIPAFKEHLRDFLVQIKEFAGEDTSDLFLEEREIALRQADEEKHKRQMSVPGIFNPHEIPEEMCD
T1 sequence (O14980 whole entry E571K): as the sequence (O14980 whole entry E571K, other chains not shown) above
T2 sequence (O14980 whole entry): as the sequence (O14980 whole entry E571K, other chains not shown) above, with K571E counted along it
Sequence of full-length human CRM1(E571K) (human) (O14980 whole entry E571K): as the sequence (O14980 whole entry E571K, other chains not shown) above
Sequence of full-length human CRM1 (WT) (O14980 whole entry, other chains not shown): as the sequence (O14980 whole entry E571K, other chains not shown) above, with K571E counted along it

Molecule	Kd,E571K/Kd,WT (CRM1(E571K))	Kd [4] [µM]	also measured
CCC(=C/[C@H](C)C/C=C/C(C)=C/[C@@H](C)C(=O)[C@@H](C)[C@H](O)[C@@H](C)C/C(C)=C/C(=O)O)/C=C/[C@@H]1OC(=O)C=C[C@@H]1C [leptomycin B]			subcellular localization of endogenous RPS2 upon CRM1 inhibition (HEK 293 cells): not affected
MEELSQALASSFSVSQDLNS [Snupn1^NES]	1.8		
SSLQELVQQFEALPGDLV [X11L2^NES]	0.87		
REELWKKLEELKLKK [PP2A B56α^NES]	8.6		weaker binding to CRM1(E571K) than to WT CRM1 (CRM1(E571K); from photobleaching Kds): 4–10 fold
Mek1^NES(E41A) ({MBP}-TNLEALQKKLEELALDEQ; reading uncertain)			tighter binding to WT CRM1 than the WT Mek1^NES [1]: 14 fold
TNLEALQKKLEELELDEQ [Mek1^NES]	0.071		tighter (stronger) binding to CRM1(E571K) than to WT CRM1 (CRM1(E571K); from photobleaching Kds): 14 fold
RTFDMHSLESSIDIMR [Cpeb4^NES]	3.2		
RSFEMTEFNQALEEIKG [hRio2^NES]	0.79		
SLVLLPFDDLKISG [Iκβε^NES]	3.3		
LQLPPLERLTLDC [HIV Rev^NES]	2.3		
YERVVSPGIDLSGLTLQ [Smad4^NES]	2.8		
LKEVDQLRALERLQID [FMRP1b^NES]	3.0		
EQMVKELQEIRLEPQ [Iκβα^NES]	0.95		
Paxillin^NES(K277A) ({MBP}-RELDELMASLSDFAFMA; reading uncertain)	2.1		
SVPEVEALLARLRAL [mDia2^NES]	0.88		
SVEEVEAGLKGLKVDQQVK [eIF4E-transporter (4E-T^NES)]	10		
NFEILMKLKESLELMELVP [P73^NES]	0.75		
RELDELMASLSDFKFMA [Paxillin^NES]	4.6		weaker binding to CRM1(E571K) than to WT CRM1 (CRM1(E571K); from photobleaching Kds): 4–10 fold
MBP-RPS2^NES (putative NES of 40S ribosomal protein S2) (peptide)			fold weaker than to WT CRM1 [2]: 16 fold

Molecule	Kd,E571K/Kd,WT (CRM1(E571K))	Kd [4] [µM]	also measured
MBP-FMRP1b^NES (peptide)			Kd [3]: 9 µM
MEELSQALASSFSVSQDLNS [MBP-Snupn1^NES]		21	
SVEEVEAGLKGLKVDQQVK [MBP-eIF4E-transporter NES (4E-T^NES)]		14	Kd [5]: 1.4 µM
{MBP}-EQMVKELQEIRLEPQ (reading uncertain) [MBP-Iκβα^NES]		21	Kd [5]: 22 µM
YERVVSPGIDLSGLTLQ [MBP-Smad4^NES]		13	binding result [6]: binds
SSLQELVQQFEALPGDLV [MBP-X11L2^NES]		1.3	
TNLEALQKKLEELELDEQ [MBP-Mek1^NES]		0.005	binding result [6]: binds
TNLEALQKKLEELALDEQ [MBP-Mek1^NES(E41A)]			Kd [7]: 0.006 µM; Kd [8]: 0.005 µM
{MBP}-SLVLLPFDDLKISG (reading uncertain) [MBP-Iκβε^NES]		12	Kd [5]: 3.6 µM
NFEILMKLKESLELMELVP [MBP-P73^NES]		1.5	
RTFDMHSLESSIDIMR [MBP-Cpeb4^NES]		1.9	
RELDELMASLSDFKFMA [MBP-Paxillin^NES]		3.1	
REELWKKLEELKLKK [MBP-PP2A B56α^NES]		38	Kd [5]: 4.4 µM
LQLPPLERLTLDC [MBP-HIV Rev^NES]		4.1	
SVPEVEALLARLRAL [MBP-mDia2^NES]		1.5	
PLPVLGLGGLRISS [MBP-Dusp6^NES]		14	
NSNELALKLAGLDIDE [MBP-PKI^NESDE]			fold tighter than to WT CRM1 [7]: 3 fold
RSFEMTEFNQALEEIKG [MBP-hRio2^NES]		1.9	
